Results as given in patent US11547761B1, “Antibody adjuvant conjugates” (The Board of Trustees of the Leland Stanford Junior …, priority 2016, dated 2023).

Test system: human APCs (myeloid cells)
Assay: APC-tumor co-culture / myeloid cell stimulation, surface markers by flow cytometry
Format: cell-based
Conditions: 18 hours of stimulation
From the text: Human antigen presenting cells (APCs) were negatively selected from human peripheral blood mononuclear cells obtained from healthy blood donors (Stanford Blood Center) by density gradient centrifugation using a RosetteSep Human Monocyte Enrichment Cocktail (Stem Cell Technologies) containing monoclonal antibodies against CD2, CD3, CD8, CD19, CD56, CD66b and CD235a. Immature APCs were subsequently purified to >97% purity via negative selection using an EasySep Human Monocyte Enrichment Kit without CD16 depletion containing monoclonal antibodies against CD2, CD3, CD19, CD20, CD56, CD66b, CD123 and CD235a.
Tumor cells were resuspended in PBS with 0.1% fetal bovine serum (FBS) at 1 to 10×10^6 cells/mL. Cells were subsequently incubated with 2 μM CFSE to yield a final concentration of 1 μM. […]
2×10^5 APCs were incubated with or without 6.5×10^5 autologous or allogeneic CFSE-labeled tumor cells in 96-well plates (Corning) containing IMDM medium (Gibco) supplemented with 10% fetal bovine serum, 100 U/mL penicillin, 100 μg/mL streptomycin, 2 mM L-glutamine, sodium pyruvate, non-essential amino acids, 50 μM 2-ME and, where indicated, various concentrations of anti-tumor antibody and the indicated adjuvants. Cells and cell-free supernatants were analyzed after 18 hours via flow cytometry. […]

B1: Nivolumab IgG1 immunoconjugate (conjugate, chains of the INN, looked up)
VH: QVQLVESGGGVVQPGRSLRLDCKASGITFSNSGMHWVRQAPGKGLEWVAVIWYDGSKRYYADSVKGRFTISRDNSKNTLFLQMNSLRAEDTAVYYCATNDDYWGQGTLVTVSS
VL: EIVLTQSPATLSLSPGERATLSCRASQSVSSYLAWYQQKPGQAPRLLIYDASNRATGIPARFSGSGSGTDFTLTISSLEPEDFAVYYCQQSSNWPRTFGQGTKVEIK
modifications: IgG1 adjuvant immunoconjugate
  APC / myeloid / dendritic cell activation (overall): very potent
